Reference: paper PMC10197565 (bioRxiv, 2023)

Target: the molecule itself
Experiment: cryo-EM structure

B1: MBP-Vpu full length (HIV-1 Vpu fused to maltose binding protein) (natural protein)
chain: MQPIPIVAIVALVVAIIIAIVVWSIVIIEYRKILRQRKIDRLIDRLIERAEDSGNESEGEISALVEMGVEMGHHAPWDVDDL
stoichiometry N: 6
